Experimental data taken from CN106084048A (UNIV SUN YAT SEN, dated 2016).

B1: 抗CD3单域抗体 C57 (VHH)
VHH: QVQLQESGGGLVQAGDSLRLSCAASGRTFSSYVMGWFRQAPGKEREFVAAIRWSGGSTYYADSVKGRFTISRDNAKNTMYLQMNSLKPEDTAVYYCAAAQKINTDVTGAYWGQGTQVTVSS
notes: Llama sdAb from a phage library; Tested as unpurified sdAb-SASA protein in E. coli expression medium / culture supernatant (FASEBA format); 1 in its text; also called sdAb C57; not shown: SASA fusion partner of the pFASEBA vector (sdAb-SASA protein in the expression medium)
B2: 抗CD3单域抗体 C58 (VHH)
VHH: QVQLQESGGGLVQPGGSLRLSCAASGFTLDYYAIGWFRQAPGKEREGVSCISSGDGTTYYADSVKGRFTISRDNAKNTVYLQMNSLKPEDTAVYYCAAARTRKVISIATMTLDPKVFASWGQGTQVTVSS
notes: Llama sdAb from a phage library; Tested as unpurified sdAb-SASA protein in E. coli expression medium / culture supernatant (FASEBA format); 3 in its text; also called sdAb C58; not shown: SASA fusion partner of the pFASEBA vector (sdAb-SASA protein in the expression medium)

Experiments:
[1] = biological target: CD3 on Jurkat cells (UniProt P07766); experiment: flow cytometry, culture supernatant on Jurkat cells (negative control)
[2] = biological target: T1, CD3-His蛋白(MP-5) (UniProt P07766 23-126); experiment: BLI (Octet RED96), sdAb-SASA from expression medium captured on BSA-coated biosensor, 100 nM CD3 in solution, 1:1 Langmuir fit, 30°C
T1 construct: Immunogen and panning antigen; The Octet method speaks only of 'CD3蛋白' in solution at 100 nM; also called CD3蛋白; not shown: His tag

[3] = biological target: CD3 on Jurkat cells (UniProt P07766); experiment: flow cytometry, culture supernatant on Jurkat cells

T1 sequence (P07766 23-126): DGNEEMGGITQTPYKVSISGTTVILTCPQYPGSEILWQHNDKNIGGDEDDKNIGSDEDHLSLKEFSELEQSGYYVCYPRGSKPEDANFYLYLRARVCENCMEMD

| Molecule | MFI [1] | koff [2] | MFI [3] |
| --- | --- | --- | --- |
| NC-sdAb(相同形式的非相关性sdAb) (VHH) | 115 MFI |  |  |
| B1 |  | 4.6e-05 s⁻¹ | 213 MFI |
| B2 |  | 3.91e-05 s⁻¹ | 245 MFI |
